According to publication PMC10214136 (Proceedings of the National Academy of Sciences of the …, 2023):
Like-named read-outs stand apart in the source and are kept apart here.

How the values were obtained:
[1] = biological target: FtsEX complex (Pseudomonas aeruginosa), wild type, in peptidiscs (Pseudomonas aeruginosa); assay: cryo-EM structure
[2] = biological target: FtsE^E163QX–EnvC complex (Pseudomonas aeruginosa) (Pseudomonas aeruginosa); assay: cryo-EM structure
purified protein = substrate: Nc1ncnc2c1ncn2[C@@H]1O[C@H](COP(=O)(O)OP(=O)(O)OP(=O)(O)O)[C@@H](O)[C@H]1O; assay: purified protein; conditions: ATP/MgCl2, pH 7.5, 37 °C, FtsEX in peptidiscs with EnvC
cryo-EM structure [3] = biological target: the molecule itself; assay: cryo-EM structure
[4] = biological target: T1, FtsE (Pseudomonas aeruginosa), wild type (Pseudomonas aeruginosa, UniProt A0A069QBX1 1-223); assay: co-purification
T1 sequence: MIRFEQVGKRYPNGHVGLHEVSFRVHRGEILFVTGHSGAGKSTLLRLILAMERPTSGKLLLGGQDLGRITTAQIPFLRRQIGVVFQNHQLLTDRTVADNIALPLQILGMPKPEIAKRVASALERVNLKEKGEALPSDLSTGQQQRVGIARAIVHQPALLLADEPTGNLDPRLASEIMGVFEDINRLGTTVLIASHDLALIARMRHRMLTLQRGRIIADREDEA

cryo-EM structure [5] = biological target: the molecule itself; assay: cryo-EM structure; remark: listed apart in the source

## EnvC (Pseudomonas aeruginosa), envC^Δ19 construct, wild type (natural protein)
[1]
  stoichiometry N (EnvC per FtsE2-FtsX2 complex): 1

B1: AmiB (Pseudomonas aeruginosa), amiB^Δ29 construct (enzyme)
chain: SLLQAHLSHRSALRSRFRFDPAAVMDCLRAEVLGQDPALQAVEDMLKVVRADIADPRRPLFSALFLGPTGVGKTEIVRALARALHGDAEGFCRVDMNTLSQEHYAAALTGAPPGYVGAKEGTTLLEQDKLDGSPGRPGIVLFDELEKASPEVVHALLNVLDNGLLRVASGERTYHFRNTLVFMTSNLCAHEIQRYDERRQRLPWRLLPVGGERRRRDIDGMVRARLLKTFSPEFVNRLDSVVTFNWIERDVVARLVELEVQRLNRRLEKHRCRLEATPEVLAKIARAGFDRQFGARALRRSVRHHLEVPLAEHLLDHHQPGDGNCTTYLASLEHERVRFVRR
[2]
  stoichiometry N (AmiB per FtsE2-FtsX2-EnvC complex): 1

B2: FtsEX/EnvC (FtsEX–EnvC complex) (Pseudomonas aeruginosa PAO1) (protein)
chain: MIRFEQVGKRYPNGHVGLHEVSFRVHRGEILFVTGHSGAGKSTLLRLILAMERPTSGKLLLGGQDLGRITTAQIPFLRRQIGVVFQNHQLLTDRTVADNIALPLQILGMPKPEIAKRVASALERVNLKEKGEALPSDLSTGQQQRVGIARAIVHQPALLLADEPTGNLDPRLASEIMGVFEDINRLGTTVLIASHDLALIARMRHRMLTLQRGRIIADREDEA
Purified protein
  Km: 230 µM

B3: FtsX (Pseudomonas aeruginosa) (natural protein)
chain: MSANDLPRGPEEGAPERKTREKPSQEQTDWSGSFSAYLESHRASLVDSLRRLFGHPFGSFFTCLVMGITLSLPMGLSLLLNNVERLGGSWQRAAQISLFLDLKTSENQGQDLREQIERLPDVIEAQLISREQALSELQEQSGLGEALKELPENPLPPVISVTPKQIDRAGLEALRQQLAELPHVQQAQLDLVWVERLSAILKLGERFVFGLTILLVLTLLLVVGNTIRLHIENRRNEIEVIKLVGGTDGYVRRPFLYMGALYGLGAGILSWALLAYSLNWLNGSVVNLSGLYGSDFGLQGVPLDDGLSLTVGAVLLGWVGAWLAVARHLRELAPR
cryo-EM structure [3]
  stoichiometry N: 2
[4]
  stoichiometry N: 1 FtsE:FtsX molar ratio

B4: FtsE^E163Q (Pseudomonas aeruginosa) (natural protein)
chain: MIRFEQVGKRYPNGHVGLHEVSFRVHRGEILFVTGHSGAGKSTLLRLILAMERPTSGKLLLGGQDLGRITTAQIPFLRRQIGVVFQNHQLLTDRTVADNIALPLQILGMPKPEIAKRVASALERVNLKEKGEALPSDLSTGQQQRVGIARAIVHQPALLLADQPTGNLDPRLASEIMGVFEDINRLGTTVLIASHDLALIARMRHRMLTLQRGRIIADREDEA
cryo-EM structure [5]
  stoichiometry N: 2
